According to paper PMC9499506, “TNF-α and IL-1β Modulate Blood-Brain Barrier Permeability and Decrease Amyloid-β Peptide Efflux in a Human Blood-Brain Barrier Model” (International Journal of Molecular Sciences, 2022):

Assays:
BLECs [1] = conditions: MTT assay; 10% (v/v) DMSO, 24 h; positive control of cell toxicity; mean of at least three independent experiments in triplicate
Procedure: An MTT assay was performed as a preliminary test to determine their effect on BLEC viability and to validate the chosen concentrations. Dimethyl sulfoxide (DMSO) at 10% (v/v) was used as a positive control of cell toxicity.
After 6 days of coculture, TNF-α or IL-1β were added to the basolateral compartment (brain side) at 10 ng·mL^−1 for 24 h, at 37 °C and 5% CO2, to mimic CNS inflammation condition. Each condition was studied in triplicate.
The standard MTT [3-(4,5-dimethylthiazol-2-yl)-2,5-diphenyltetrazolium bromide] assay (AR1156, Boster Biological Technology, Pleasanton, CA, USA) was performed to determine BLEC viability. Briefly, after coculture treatments, culture medium was removed and replaced with worm Ringer-Hepes (RH; 150 mM NaCl, 5.2 mM KCl, 2.2 mM CaCl2, 0.2 mM MgCl2–6H2O, 6 mM NaHCO3, 5 mM HEPES, 2.8 mM glucose; pH: 7.4) in basolateral compartment and with MTT solution (0.5 mg·mL^−1) in RH at in the opposite compartment for 3 h at 37 °C and 5% CO2. […] Aliquot was sampled in 96-well plate and the optical density (OD) was measured with a microplate reader (Synergy H1, BioTek. Colmar, France) at the wavelength of 570 and 630 nm. The percentage of relative cell viability compared to the control condition was subsequently determined using the following formula: % relative cell viability = ((OD570 − OD630) condition)/((OD570 – OD630)control) × 100.

BLEC monolayer = assay: Endothelial permeability coefficient of lucifer yellow across untreated BLEC monolayer; format: in vitro ADME, human; conditions: mean ± SEM
Text: As described previously, the human in vitro blood-brain barrier (BBB) model based on the acquisition of the human brain-like endothelial cell (BLEC) phenotype was used for this study. This BBB model corresponds to a coculture of primary human endothelial cells (ECs) derived from CD34^+ cord blood hematopoietic stem cells and bovine brain pericytes, isolated as described by Vandenhaute and colleagues. Informed consent was obtained from all infants’ parents for the umbilical cord blood collection and use. […] Briefly, 8 × 10^4 ECs at passage 6 were seeded onto Matrigel-coated (BD Biosciences, San Jose, CA, USA) insert (pore size 0.4 μm, Costar Transwell inserts, Corning Inc., Corning, New York, NY, USA. Endothelial cells were cocultured with bovine brain pericytes at passage 10 in a 12-well plate gelatin-coated with ECM-5. Every two days, ECM-5 was changed until experiment. However, a minimum of 5 days of culture were required for the ECs to develop the BLEC phenotype and a maximum of 21 days of BLEC phenotype stability has been determined. Once BLEC phenotype was acquired, these cells delimited two compartments, one mimicking the blood side (corresponding to the apical compartment) and the other the brain side (corresponding to the basolateral side). […]
The BLEC monolayer integrity was evaluated after each treatment using the method described by Dehouck and colleagues. […]

BLECs [2] = assay: Aβ1–40Cy5 peptide / FITC-inulin transport across untreated BLECs (Papp, transcytosis quotient); format: in vitro ADME, human; conditions: 30 min, 37 °C, mean ± SEM; for apparent permeability coefficient (Papp), efflux transport, control: untreated human BLECs on Transwell insert, basolateral-to-apical, 10 nM Aβ1–40Cy5 with 1 µM FITC-inulin in RH-HSA 0.1% pH 7.4, slight agitation, fluorescence, at least three independent experiments in triplicate
Procedure: As TNF-α and IL-1β modulated the protein expression levels of LRP1, BCRP and PICALM (Figure 4), we investigated the effect of these cytokines on the transport of Aβ peptide across the BBB. After 24 h of treatment with proinflammatory cytokines, the apical-to-basolateral (influx) and basolateral-to-apical (efflux) Aβ1–40Cy5 peptide transports across the BLECs were assessed in the presence of FITC-inulin. The Aβ1–40 peptide was used in all experiments, as it is the most abundant amyloid peptide found on cerebral blood vessels. FITC-inulin was used to determine the nonspecific transcytosis quotient (Figure 5A). Indeed, unlike Aβ peptide, FITC-inulin is not actively cleared at the BBB and acts as a reference marker of paracellular permeability, thus as previously reported.
As described previously, the human in vitro blood-brain barrier (BBB) model based on the acquisition of the human brain-like endothelial cell (BLEC) phenotype was used for this study. This BBB model corresponds to a coculture of primary human endothelial cells (ECs) derived from CD34^+ cord blood hematopoietic stem cells and bovine brain pericytes, isolated as described by Vandenhaute and colleagues. Informed consent was obtained from all infants’ parents for the umbilical cord blood collection and use. Procedures for isolation of cells from umbilical cord were approved by the French Ministry of Higher Education and Research (CODECOH DC2011-1321, approved 31 January 2013) and by the local investigational review board (Béthune Maternity Hospital, Beuvry, France). Briefly, 8 × 10^4 ECs at passage 6 were seeded onto Matrigel-coated (BD Biosciences, San Jose, CA, USA) insert (pore size 0.4 μm, Costar Transwell inserts, Corning Inc., Corning, New York, NY, USA. Endothelial cells were cocultured with bovine brain pericytes at passage 10 in a 12-well plate gelatin-coated with ECM-5. Every two days, ECM-5 was changed until experiment. However, a minimum of 5 days of culture were required for the ECs to develop the BLEC phenotype and a maximum of 21 days of BLEC phenotype stability has been determined. Once BLEC phenotype was acquired, these cells delimited two compartments, one mimicking the blood side (corresponding to the apical compartment) and the other the brain side (corresponding to the basolateral side). […]
After proinflammatory cytokine treatments, the influx (apical-to-basolateral) and the efflux (basolateral-to-apical) transport of Aβ1–40 peptides across BLECs were investigated as previously described. […] The BBB integrity was determined by measuring the endothelial permeability of a radioactive integrity marker, ^14C-sucrose, using the same method of calculation as described in Section 4.4. […]

Compound: C[S+](C)[O-] [DMSO, Dimethyl sulfoxide, reference compound]
- decrease of BLEC viability compared to control (BLECs [1]): 26.5%

Compound: Lucifer Yellow CH dilithium salt [LY]
- transcellular PeLY, control BLECs (BLEC monolayer; PeLY at 37 °C minus PeLY at 4 °C): 0.36 ± 0.02 × 10^−3 cm·min^−1
- paracellular PeLY, control BLECs (BLEC monolayer; as total PeLY but at 4 °C (transcellular pathway inhibited), 50 µM LY in RH buffer, fluorescence): 0.18 ± 0.01 × 10^−3 cm·min^−1

Compound: human amyloid-β peptide (1–40)-Cy5 [Aβ1–40Cy5]
- transcytosis quotient of Aβ1–40Cy5, efflux direction, control (BLECs [2]; efflux Aβ1–40Cy5 Papp / efflux FITC-inulin Papp, untreated BLECs): 3.22 ± 0.13
- transcytosis quotient of Aβ1–40Cy5, influx direction, control (BLECs [2]; influx Aβ1–40Cy5 Papp / influx FITC-inulin Papp, untreated BLECs): 3.10 ± 0.25
- apparent permeability coefficient (Papp), efflux transport, control (BLECs [2]): 4.47 ± 0.16 × 10^−6 cm·min^−1

Compound: FITC-inulin
- apparent permeability coefficient (Papp), efflux transport, control (BLECs [2]): 1.41 ± 0.03 × 10^−6 cm·min^−1
